Laboratory results published in patent publication US10494415B2, “Insulin-like growth factor 2 (IGF2) binding agents” (Cancer Research Technology Limited, priority 2015, dated 2019).

Experiments:
IGF2 in human serum = experiment: Neutral size fractionation of human serum before and after depletion with IGF2-TRAP beads, western blot
Experimental: FIG. 14 IGF2-TRAP modifies the molecular distribution of IGF2 in human serum. Normal (left) and NICTH (right) sera were fractionated in a gel filtration column at neutral pH, alongside a molecular weight calibration marker, before and after incubation and depletion with IGF2-TRAP-loaded protein G beads. Elution fractions were analysed by western blot.
Changes in the molecular distribution of circulating IGF2 upon IGF2-TRAP treatment were analysed by neutral size fractionation of human serum (FIG. 14). In adult human serum, western blots of the fractions reveal that IGF2 is mainly the mature lower molecular weight isoform, and is predominantly present in a ternary complex with IGFBP3 and the acid labile subunit (ALS) (˜150 kDa), and to a lesser extent in a binary complex with IGFBP3 (˜40 kDa), with free IGF2 below the limit of detection. […] Pull-downs confirmed that the depleted IGF2 specifically bound IGF2-TRAP. In a second experiment, serum from a patient with Non-Islet-Cell Tumour-associated Hypoglycaemia (NICTH) secondary to a GIST tumour was utilised.

SKNMC-IGF2^1-67 cells = experiment: Growth/viability of IGF2-autocrine SKNMC cells in culture (MTS); assay type: cell-based, human
Excerpt: IGF2 sensitive autocrine cell line SKNMC-IGF2^67 was generated from the Ewing sarcoma cell line SKNMC by retroviral infection with constructs containing IRES-luciferase. Autocrine growth and signalling function of the SKNMC line, including inhibition by IGF2-TRAP, was confirmed in culture using an MTS reagent (Cell Titer 96 Aqueous One Solution cell proliferation assay, Promega). For xenografts, approximately 5×10^6 SKNMC-IGF2^67 cells harvested during the growth phase of sub-confluent cell cultures were then mixed with matrigel (50:50 v/v, 100 μl/mouse) and injected (sub-cutaneous) into CD-1® (Crl:NU-1 Foxn1nu) female mice, 24 hours after establishing ALZET® mini-pump placement delivering a single concentration 40 mg kg-1 per week either IGF2-TRAP or PBS vehicle control. Tumour growth was monitored with both caliper measurements and bioluminescence. The latter was performed with a Bruker Xtreme 2D optical system 15 minutes (10 second exposure) following luciferin injection (100 μl per 20 g body weight). Tumours were excised at 28 days or when size was >1000 mm3. Fixation in formalin, embedding in paraffin and Hematoxylin and Eosin (H&E) staining was done using standard protocols. Apoptotic area was quantified using automated image analysis of brightfield images in ImageJ, applying H AEC color deconvolution filter and automated thresholding. […]

[1] = system: SKNMC-IGF2^1-67 xenografts; experiment: IGF2 dependent human cancer cell xenografts; assay type: in vivo, mouse; conditions: for Xenograft growth: CD-1 nude mice, 40 mg kg-1 per week by osmotic mini-pump
Excerpt: IGF2 sensitive autocrine cell line SKNMC-IGF2^67 was generated from the Ewing sarcoma cell line SKNMC by retroviral infection with constructs containing IRES-luciferase. Autocrine growth and signalling function of the SKNMC line, including inhibition by IGF2-TRAP, was confirmed in culture using an MTS reagent (Cell Titer 96 Aqueous One Solution cell proliferation assay, Promega). For xenografts, approximately 5×10^6 SKNMC-IGF2^67 cells harvested during the growth phase of sub-confluent cell cultures were then mixed with matrigel (50:50 v/v, 100 μl/mouse) and injected (sub-cutaneous) into CD-1® (Crl:NU-1 Foxn1nu) female mice, 24 hours after establishing ALZET® mini-pump placement delivering a single concentration 40 mg kg-1 per week either IGF2-TRAP or PBS vehicle control. Tumour growth was monitored with both caliper measurements and bioluminescence. The latter was performed with a Bruker Xtreme 2D optical system 15 minutes (10 second exposure) following luciferin injection (100 μl per 20 g body weight). Tumours were excised at 28 days or when size was >1000 mm3. Fixation in formalin, embedding in paraffin and Hematoxylin and Eosin (H&E) staining was done using standard protocols. Apoptotic area was quantified using automated image analysis of brightfield images in ImageJ, applying H AEC color deconvolution filter and automated thresholding. Serum was also collected at the time of culling.

Sequence of IGF2 in human serum (P01344 25-91 limits assumed): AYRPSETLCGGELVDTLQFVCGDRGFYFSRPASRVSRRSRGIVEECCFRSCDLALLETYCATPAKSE

B1: Fc-domain 11^AB5-RHH: Fc-fusion of domain 11^AB5-RHH (IGF2-TRAP); IgG2 Fc form purified from CHO cells used for xenografts (protein)
chain: NEHDDCQVTNPSTGHLFDLSSLSGRAGFTAAYAKGWGVYMSICGENENCPPGVGACFGRTRISVGKANKRLRYVDQVLQLVYKDGSHCPSKHGLSYKSVISFVCRPEAGPTNRPMLISLDKQTCTLFFSWHTPLACEQAT
modifications: left off: a dimerising Fc or GST
notes: Fc-fusion of domain 11^AB5-RHH (IGF2-TRAP); IgG2 Fc form purified from CHO cells used for xenografts
IGF2 distribution in serum after IGF2-TRAP depletion (IGF2 in human serum; NICTH patient serum): depleted both lower and higher molecular weight isoforms of IGF2
IGF2 distribution in serum after IGF2-TRAP depletion (IGF2 in human serum; normal adult human serum): depleted IGF2 in the binary complex
Growth of SKNMC cells expressing constitutive IGF2^1-67 in culture (SKNMC-IGF2^1-67 cells; listed as Fc-domain 11AB5-RHH): inhibited
Growth of SKNMC cells expressing constitutive IGF2^1-67 in culture (SKNMC-IGF2^1-67 cells; listed as IGF2-TRAP): decreases the cell viability
Xenograft growth ([1]; listed as Fc-domain 11AB5-RHH): Reduced xenograft growth rates
Xenograft growth ([1]; listed as IGF2-TRAP): reduces IGF2 dependent xenograft growth
Total serum IGF1, Growth Hormone or IGFBP levels ([1]; Day 28): without alteration
Serum IGF2 ([1]; Day 28, listed as Fc-domain 11AB5-RHH): less evident
Serum IGF2 ([1]; Day 28, listed as IGF2-TRAP): reduced levels of serum IGF2
